We go through 1 substance from publication PMC3171513.

The target of assay [1] is wild-type cytochrome bc1 complex from Paracoccus denitrificans (Paracoccus denitrificans) (UniProt P05417).
Assay [2] addresses His-tagged wild-type cytochrome bc1 complex from Paracoccus denitrificans (Paracoccus denitrificans) (UniProt P05417).

As to “horse heart cytochrome c (from UniProt P00004 1-105) (natural protein)”, the steady-state reduction of cytochrome c by bc1 complex with decylubiquinol, KM stood at 2.3 µM in assay [1] and 3.4 µM in assay [2]. In addition, the figures for the steady-state reduction of cytochrome c by bc1 complex with decylubiquinol, kCAT in assay [1] and in assay [2] were 273 s⁻¹ and 328 s⁻¹, respectively.
